Biological target: recombinant protein TCRVB 6-5 (human)
Assay: SPR, compared with BJM0277

Chain of recombinant protein TCRVB 6-5 (human) (TCR beta, as listed by the source): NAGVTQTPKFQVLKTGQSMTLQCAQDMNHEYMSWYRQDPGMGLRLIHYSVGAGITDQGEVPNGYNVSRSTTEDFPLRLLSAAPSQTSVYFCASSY

B1: A-H.45 (bispecific antibody, part only; not given: anti-CD19 arm, constant regions, linkers, not shown: another chain or arm of the molecule; a dimerising Fc or GST; small tags and cut ends)
scFv: QVQLVQSGAEVKKPGSSVKVSCKASGYSFTTYYIHWVRQAPGQGLEWMGWFSAGSGNTKYNEKFKGRVTITADTSTSTAYMELSSLRSEDTAVYYCAVSYYSYDVLDYWGQGTTVTVSSGGGGSGGGGSGGGGSGGGGSDIQMTQSPSFLSASVGDRVTITCKASQNVGINVVWHQQKPGKAPKALIYSSSHRYSGVPSRFSGSGSGTEFTLTISSLQPEDFATYFCQQFKSYPLTFGQGTKLEIK
- fold greater affinity than BJM0277: 35 fold
